Measurements published in patent EP1106701A1.

Assays:
[1] = target: standard human trypsin sample enclosed in the Kodazyme Trypsin M·EIA kit (human); experiment: Kodazyme Trypsin M·EIA sandwich EIA, standard human trypsin 50 ng/ml, duplicate
[2] = target: canine anionic trypsin (canine (dog)); experiment: Kodazyme Trypsin M·EIA sandwich EIA, canine anionic trypsin 50 ng/ml, duplicate
[3] = target: canine cationic trypsin (canine (dog)); experiment: Kodazyme Trypsin M·EIA sandwich EIA, canine cationic trypsin 200 ng/ml, duplicate
[4] = target: standard human trypsin sample enclosed in the Kodazyme Trypsin M·EIA kit (human); experiment: Kodazyme Trypsin M·EIA sandwich EIA, standard human trypsin 600 ng/ml
[5] = target: standard human trypsin sample enclosed in the Kodazyme Trypsin M·EIA kit (human); experiment: Kodazyme Trypsin M·EIA sandwich EIA, standard human trypsin 10 ng/ml
[6] = target: standard human trypsin sample enclosed in the Kodazyme Trypsin M·EIA kit (human); experiment: Kodazyme Trypsin M·EIA sandwich EIA, standard human trypsin 400 ng/ml
[7] = target: canine cationic trypsin (canine (dog)); experiment: Kodazyme Trypsin M·EIA sandwich EIA, canine cationic trypsin 25 ng/ml
[8] = target: canine cationic trypsin (canine (dog)); experiment: Kodazyme Trypsin M·EIA sandwich EIA, canine cationic trypsin 25 ng/ml, duplicate
[9] = target: canine anionic trypsin (canine (dog)); experiment: Kodazyme Trypsin M·EIA sandwich EIA, canine anionic trypsin 400 ng/ml, duplicate
[10] = target: canine anionic trypsin (canine (dog)); experiment: Kodazyme Trypsin M·EIA sandwich EIA, canine anionic trypsin 400 ng/ml
[11] = target: canine cationic trypsin (canine (dog)); experiment: Kodazyme Trypsin M·EIA sandwich EIA, canine cationic trypsin 50 ng/ml
[12] = target: canine cationic trypsin (canine (dog)); experiment: Kodazyme Trypsin M·EIA sandwich EIA, canine cationic trypsin 6.25 ng/ml
[13] = target: canine anionic trypsin (canine (dog)); experiment: Kodazyme Trypsin M·EIA sandwich EIA, canine anionic trypsin 25 ng/ml
[14] = target: standard human trypsin sample enclosed in the Kodazyme Trypsin M·EIA kit (human); experiment: Kodazyme Trypsin M·EIA sandwich EIA, standard human trypsin 400 ng/ml, duplicate
[15] = target: canine anionic trypsin (canine (dog)); experiment: Kodazyme Trypsin M·EIA sandwich EIA, canine anionic trypsin 6.25 ng/ml, duplicate
[16] = target: canine anionic trypsin (canine (dog)); experiment: Kodazyme Trypsin M·EIA sandwich EIA, canine anionic trypsin 200 ng/ml
[17] = target: canine cationic trypsin (canine (dog)); experiment: Kodazyme Trypsin M·EIA sandwich EIA, canine cationic trypsin 100 ng/ml
[18] = target: canine cationic trypsin (canine (dog)); experiment: Kodazyme Trypsin M·EIA sandwich EIA, canine cationic trypsin 6.25 ng/ml, duplicate
[19] = target: canine cationic trypsin (canine (dog)); experiment: Kodazyme Trypsin M·EIA sandwich EIA, canine cationic trypsin 12.5 ng/ml
[20] = target: canine cationic trypsin (canine (dog)); experiment: Kodazyme Trypsin M·EIA sandwich EIA, canine cationic trypsin 400 ng/ml, duplicate
[21] = target: canine anionic trypsin (canine (dog)); experiment: Kodazyme Trypsin M·EIA sandwich EIA, canine anionic trypsin 25 ng/ml, duplicate
[22] = target: canine cationic trypsin (canine (dog)); experiment: Kodazyme Trypsin M·EIA sandwich EIA, canine cationic trypsin 200 ng/ml
[23] = target: canine anionic trypsin (canine (dog)); experiment: Kodazyme Trypsin M·EIA sandwich EIA, canine anionic trypsin 12.5 ng/ml, duplicate
[24] = target: standard human trypsin sample enclosed in the Kodazyme Trypsin M·EIA kit (human); experiment: Kodazyme Trypsin M·EIA sandwich EIA, standard human trypsin 10 ng/ml, duplicate
[25] = target: standard human trypsin sample enclosed in the Kodazyme Trypsin M·EIA kit (human); experiment: Kodazyme Trypsin M·EIA sandwich EIA, standard human trypsin 200 ng/ml
[26] = target: canine cationic trypsin (canine (dog)); experiment: Kodazyme Trypsin M·EIA sandwich EIA, canine cationic trypsin 12.5 ng/ml, duplicate
[27] = target: canine anionic trypsin (canine (dog)); experiment: Kodazyme Trypsin M·EIA sandwich EIA, canine anionic trypsin 200 ng/ml, duplicate
[28] = target: canine anionic trypsin (canine (dog)); experiment: Kodazyme Trypsin M·EIA sandwich EIA, canine anionic trypsin 100 ng/ml, duplicate
[29] = target: canine cationic trypsin (canine (dog)); experiment: Kodazyme Trypsin M·EIA sandwich EIA, canine cationic trypsin 400 ng/ml
[30] = target: canine anionic trypsin (canine (dog)); experiment: Kodazyme Trypsin M·EIA sandwich EIA, canine anionic trypsin 6.25 ng/ml
[31] = target: standard human trypsin sample enclosed in the Kodazyme Trypsin M·EIA kit (human); experiment: Kodazyme Trypsin M·EIA sandwich EIA, standard human trypsin 100 ng/ml
[32] = target: canine anionic trypsin (canine (dog)); experiment: Kodazyme Trypsin M·EIA sandwich EIA, canine anionic trypsin 12.5 ng/ml
[33] = target: standard human trypsin sample enclosed in the Kodazyme Trypsin M·EIA kit (human); experiment: Kodazyme Trypsin M·EIA sandwich EIA, standard human trypsin 200 ng/ml, duplicate
[34] = target: canine cationic trypsin (canine (dog)); experiment: Kodazyme Trypsin M·EIA sandwich EIA, canine cationic trypsin 100 ng/ml, duplicate
[35] = target: standard human trypsin sample enclosed in the Kodazyme Trypsin M·EIA kit (human); experiment: Kodazyme Trypsin M·EIA sandwich EIA, standard human trypsin 50 ng/ml
[36] = target: canine cationic trypsin (canine (dog)); experiment: Kodazyme Trypsin M·EIA sandwich EIA, canine cationic trypsin 50 ng/ml, duplicate
[37] = target: canine anionic trypsin (canine (dog)); experiment: Kodazyme Trypsin M·EIA sandwich EIA, canine anionic trypsin 50 ng/ml
[38] = target: canine anionic trypsin (canine (dog)); experiment: Kodazyme Trypsin M·EIA sandwich EIA, canine anionic trypsin 100 ng/ml

A492 [1]: 0.202 | A492 [2]: 0.02 | A492 [3]: 0.015 | A492 [4]: 1.58 | A492 [5]: 0.065 | A492 [6]: 1.15 | A492 [7]: 0.023 | A492 [8]: 0.018 | A492 [9]: 0.038 | A492 [10]: 0.032 | A492 [11]: 0.017 | A492 [12]: 0.048 | A492 [13]: 0.023 | A492 [14]: 0.953 | A492 [15]: 0.023 | A492 [16]: 0.023 | A492 [17]: 0.029 | A492 [18]: 0.019 | A492 [19]: 0.021 | A492 [20]: 0.019 | A492 [21]: 0.021 | A492 [22]: 0.017 | A492 [23]: 0.024 | A492 [24]: 0.131 | A492 [25]: 0.538 | A492 [26]: 0.019 | A492 [27]: 0.019 | A492 [28]: 0.022 | A492 [29]: 0.021 | A492 [30]: 0.023 | A492 [31]: 0.399 | A492 [32]: 0.02 | A492 [33]: 0.697 | A492 [34]: 0.019 | A492 [35]: 0.224 | A492 [36]: 0.017 | A492 [37]: 0.021 | A492 [38]: 0.02
Substance: human trypsin MAb of Kodazyme Trypsin M·EIA (antibody)
